Data: patent US12138316B2, “Anti-B7H3 antibody-drug conjugate and use thereof” (Duality Biologics (Suzhou) Co., Ltd., priority 2023, dated 2024)

T1: human 4IgB7H3 (Homo sapiens, UniProt Q5ZPR3)
T1 construct: Uniprot ID: Q5ZPR3, amino acids 29-461; made in house; host or cells: Expi293F
T1 sequence (Q5ZPR3 29-461): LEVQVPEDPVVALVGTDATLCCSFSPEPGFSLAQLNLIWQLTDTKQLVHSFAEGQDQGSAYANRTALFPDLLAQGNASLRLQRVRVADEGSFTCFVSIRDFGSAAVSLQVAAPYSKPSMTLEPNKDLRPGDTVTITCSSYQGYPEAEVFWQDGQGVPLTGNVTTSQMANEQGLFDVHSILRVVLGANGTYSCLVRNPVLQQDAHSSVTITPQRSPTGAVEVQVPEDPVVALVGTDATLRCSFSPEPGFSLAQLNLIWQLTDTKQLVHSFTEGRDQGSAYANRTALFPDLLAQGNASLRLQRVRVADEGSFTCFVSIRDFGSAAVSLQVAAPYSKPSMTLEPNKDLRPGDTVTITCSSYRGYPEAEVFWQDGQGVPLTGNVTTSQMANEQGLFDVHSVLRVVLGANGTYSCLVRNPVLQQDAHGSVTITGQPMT

T2: human B7H3 (Homo sapiens, UniProt Q5ZPR3)
T2 construct: MCF-7 cells expressing human full-length B7H3; host or cells: MCF-7
T2 sequence (Q5ZPR3 29-534): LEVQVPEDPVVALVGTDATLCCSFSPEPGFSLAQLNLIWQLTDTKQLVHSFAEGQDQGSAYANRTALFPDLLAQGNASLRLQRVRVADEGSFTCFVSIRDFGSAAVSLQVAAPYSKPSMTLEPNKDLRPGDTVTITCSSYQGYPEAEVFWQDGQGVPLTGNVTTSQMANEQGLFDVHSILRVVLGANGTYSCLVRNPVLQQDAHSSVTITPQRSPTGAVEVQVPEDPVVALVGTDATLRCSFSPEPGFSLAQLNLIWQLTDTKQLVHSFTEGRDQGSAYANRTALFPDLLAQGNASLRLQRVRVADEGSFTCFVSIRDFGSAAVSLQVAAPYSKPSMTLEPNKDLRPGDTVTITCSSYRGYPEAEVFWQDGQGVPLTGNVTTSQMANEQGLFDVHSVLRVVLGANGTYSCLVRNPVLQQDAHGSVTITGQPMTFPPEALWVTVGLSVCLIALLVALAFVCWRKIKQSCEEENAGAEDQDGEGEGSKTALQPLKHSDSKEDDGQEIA

T3: human 2IgB7H3 (Homo sapiens, UniProt Q5ZPR3)
T3 construct: His tag; purchased ACROBiosystems B73-H52E2
T3 sequence (Q5ZPR3 29-316 isoform Q5ZPR3-2 limits assumed): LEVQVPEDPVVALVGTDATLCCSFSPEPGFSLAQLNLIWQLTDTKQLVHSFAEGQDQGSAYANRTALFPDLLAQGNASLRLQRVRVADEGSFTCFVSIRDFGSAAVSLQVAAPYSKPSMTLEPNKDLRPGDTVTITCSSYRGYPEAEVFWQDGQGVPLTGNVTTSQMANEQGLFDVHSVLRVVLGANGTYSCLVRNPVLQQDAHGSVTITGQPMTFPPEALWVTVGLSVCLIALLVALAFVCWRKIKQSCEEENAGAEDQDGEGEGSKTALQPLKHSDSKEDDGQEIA


Key:
[1] = Pharmacokinetic study, single intravenous infusion in cynomolgus monkeys; settings: both sexes, cynomolgus monkey, in vivo
Experimental: 18 cynomolgus monkeys (half female and half male) were weighed one day before administration, stratified based on the weight, and then randomly divided into 3 groups (3 females and 3 males/group): a low dose group (1 mg/kg), a medium dose group (3 mg/kg), and a high dose group (10 mg/kg). […] Blood was collected from the forelimb veins of cynomolgus monkeys in each group, and treated samples of the blood collected at 0 h before and 0.5 […], and 672 h after the administration were used as PK samples. After the blood collection at each time point was completed, serum was obtained by centrifugation for sample analysis.

[2] = system: human B7H3-expressing cells MCF-7; test: Internalization test (HCS) in MCF-7 cells; assay type: cell-based
Experimental: Antibody internalization was determined by operetta CLS (PerkinElmer), a high-content imaging and analysis system that can collect and analyze images of samples at high speed and high sensitivity. MCF-7 cells expressing human full-length B7H3 (1.5×10^4 cells/well) were seeded into a 96-well clear bottom black plate pre-coated with 8 μg/mL poly-D-lysine. After incubation in an incubator set to 37° C., 5% CO2 overnight, various concentrations of the antibodies (3.16-fold serially diluted with 1×DPBS/1% BSA from 50 nM to 0.0005 nM) were incubated in a volume of 100 μL/well in a refrigerator set to 4° C. for 2 h. Anti-human B7H3 reference antibody enoblituzumab (MacroGeneics) was used as a positive control. Human IgG1 isotype antibody was used as a negative control. After washing the cells with 1×DPBS/1% BSA, Alexa 647 goat anti-human antibody (diluted in a 1:500 ratio in 1×DPBS/1% BSA) was added. The cells were incubated in a refrigerator set to 4° C. for 1 h in the dark. The cells were then washed once and resuspended in 1×DPBS/1% BSA at 37° C. for 2 h. […] The mean fluorescence intensity (MFI) of the cells was measured and analyzed by operetta CLS. EC50 values were calculated by four-parameter non-linear regression analysis using GraphPad Prism 7 software.

[3] = system: cynomolgus monkey B7H3; test: Binding affinity for cynomolgus monkey B7H3 (SPR)
Experimental: The affinity of antibodies for cynomolgus monkey B7H3 was determined using surface plasmon resonance (SPR). The affinity of antibodies for cynomolgus monkey B7H3 was determined by Biacore 8K. An activator was prepared by mixing 400 mM EDC and 100 mM NHS (GE) immediately prior to injection into the channel. The CM5 sensor chip was activated for 420 seconds with the activator. Goat anti-human Fc IgG (30 μg/mL in 10 mM NaAc, pH 4.5) was then injected into the channel at a flow rate of 10 μL/min for 420 seconds. The chip was deactivated by 1 M ethanolamine hydrochloric acid. The antibodies diluted in running buffer (1×HBS-EP+) were injected into the channel at a flow rate of 10 μL/min for 30 seconds. […] Glycine (10 mM, pH 1.5) was injected as regeneration buffer after the dissociation phase.
The sensorgrams for the reference channel and the buffer channel were subtracted from the test sensorgrams. The experimental data for 6 analyte concentrations (50 nM, 25 nM, 12.5 nM, 6.25 nM, 3.125 nM, and 1.563 nM) were fitted with a 1:1 binding model. The molecular weight of the cynomolgus monkey B7H3 used in the calculation was 49 kDa.

[4] = molecular target: T1, human 4IgB7H3; test: Binding affinity for human 4IgB7H3 (SPR)
Experimental: The affinity of antibodies for human 4IgB7H3 was determined using surface plasmon resonance (SPR). The affinity of antibodies for human 4IgB7H3 was determined by Biacore 8K. An activator was prepared by mixing 400 mM EDC and 100 mM NHS (GE) immediately prior to injection into the channel. The CM5 sensor chip was activated for 420 seconds with the activator. Goat anti-human Fc IgG (30 μg/mL in 10 mM NaAc, pH 4.5) was then injected into the channel at a flow rate of 10 μL/min for 420 seconds. The chip was deactivated by 1 M ethanolamine hydrochloric acid. The antibodies diluted in running buffer (1×HBS-EP+) were injected into the channel at a flow rate of 10 μL/min for 30 seconds. Seven concentrations (100 nM, 50 nM, 25 nM, 12.5 nM, 6.25 nM, […], and 1.563 nM) of analyte human 4IgB7H3 were injected sequentially into the channel at a flow rate of 30 μL/min for an association phase of 180 seconds, followed by dissociation of 3600 seconds. Glycine (10 mM, pH 1.5) was injected as regeneration buffer after the dissociation phase.
The sensorgrams for the reference channel and the buffer channel were subtracted from the test sensorgrams. The experimental data were fitted with a 1:1 binding model. The molecular weight of the human 4IgB7H3 used in the calculation was 47.8 kDa.

[5] = system: cynomolgus monkey B7H3; test: FACS binding to cynomolgus monkey B7H3-transfected stable cell pool
Experimental: FACS was used to detect the binding of antibodies to cynomolgus monkey B7H3. FlpinCHO cells were transfected with cynomolgus monkey B7H3 (W3XX088-FlpinCHO.cProl.pool) (1×10^5 cells/well), and the transfected cells were incubated with various concentrations of antibodies (3.16-fold serially diluted with 1×DPBS/1% BSA from 50 nM to 0.0005 nM) in a volume of 100 μL/well in a refrigerator set to 4° C. for 1 h. Anti-human B7H3 reference antibody enoblituzumab (MacroGeneics) was used as a positive control. Human IgG1 isotype antibody was used as a negative control. After washing the cells with 1×DPBS/1% BSA, Alexa 647 goat anti-human antibody (diluted in a 1:500 ratio in 1×DPBS/1% BSA) was added. The cells were incubated in a refrigerator set to 4° C. for 0.5 h in the dark. The mean fluorescence intensity (MFI) of the cells was measured by a flow cytometry and analyzed by FlowJo. EC50 values were calculated by four-parameter non-linear regression analysis using GraphPad Prism 7 software.

[6] = molecular target: T2, human B7H3; test: FACS binding to human B7H3-expressing cells MCF-7
Experimental: FACS was used to detect the binding of antibodies to human B7H3. This method allows quantitative analysis and identification of specific molecules expressed on the surface of living cells. Unlabeled cells were used as a control to set a threshold before the assay, and the percentage change for each group that exceeded the fluorescence intensity threshold was analyzed. MCF-7 cells expressing human full-length B7H3 (1×10^5 cells/well) were incubated with various concentrations of antibodies (3.16-fold serially diluted with 1×DPBS/1% BSA from 50 nM to 0.0005 nM) in a volume of 100 μL/well in a refrigerator set to 4° C. for 1 h. Anti-human B7H3 reference antibody enoblituzumab (MacroGeneics) was used as a positive control. Human IgG1 isotype antibody was used as a negative control. After washing the cells with 1×DPBS/1% BSA, Alexa 647 goat anti-human antibody (diluted in a 1:500 ratio in 1×DPBS/1% BSA) was added. The cells were incubated in a refrigerator set to 4° C. for 0.5 h in the dark. The mean fluorescence intensity (MFI) of the cells was measured by a flow cytometry and analyzed by FlowJo. EC50 values were calculated by four-parameter non-linear regression analysis using GraphPad Prism 7 software.

[7] = molecular target: T3, human 2IgB7H3; test: Binding affinity for human 2IgB7H3 (SPR)
Experimental: The affinity of antibodies for human 2IgB7H3 was determined using surface plasmon resonance (SPR). The affinity of antibodies for human 2IgB7H3 was determined by Biacore 8K. An activator was prepared by mixing 400 mM EDC and 100 mM NHS (GE) immediately prior to injection into the channel. The CM5 sensor chip was activated for 420 seconds with the activator. Goat anti-human Fc IgG (30 μg/mL in 10 mM NaAc, pH 4.5) was then injected into the channel at a flow rate of 10 μL/min for 420 seconds. The chip was deactivated by 1 M ethanolamine hydrochloric acid. The antibodies diluted in running buffer (1×HBS-EP+) were injected into the channel at a flow rate of 10 μL/min for 30 seconds. Seven concentrations (500 nM, 250 nM, 125 nM, 62.5 nM, 31.25 nM, 15.625 nM, and 7.813 nM) of analyte human 2IgB7H3 were injected sequentially into the channel at a flow rate of 30 μL/min for an association phase of 120 seconds, followed by dissociation of 300 seconds. Glycine (10 mM, pH 1.5) was injected as regeneration buffer after the dissociation phase.
The sensorgrams for the reference channel and the buffer channel were subtracted from the test sensorgrams. The experimental data were fitted with a 1:1 binding model. The molecular weight of the human 2IgB7H3 used in the calculation was 25.2 kDa.

ka [3] | kd (dissociation rate constant) [3] | ka [4] | kd (dissociation rate constant) [4] | Maximum MFI [6] | ka [7] | kd (dissociation rate constant) [7] | Molecule | AUC(0-t) ([1]; 3 mg/kg) | Cmax ([1]; 3 mg/kg) | AUC(0-t) ([1]; 10 mg/kg) | Cmax ([1]; 10 mg/kg) | Antibody internalization Maximum MFI [2] | Maximum MFI [5]
 |  |  |  |  |  |  | CC[C@@]1(O)C(=O)OCc2c1cc1n(c2=O)Cc2c-1nc1cc(F)c(C)c3c1c2[C@@H](NC(=O)C[C@H](C)O)CC3 [P-III-30] | 1.07 ng·h/mL | 0.133 ng/mL | 44.5 ng·h/mL | 0.573 ng/mL |  | 
185000 M⁻¹ s⁻¹ | 8.14e-05 s⁻¹ | 124000 M⁻¹ s⁻¹ | 0.000126 s⁻¹ | 4644 | 64400 M⁻¹ s⁻¹ | 0.0168 s⁻¹ | Enoblituzumab (MacroGenics): anti-B7H3 benchmark antibody (MacroGenics), SEQ ID NOs: 117 and 119 in U.S. 20120294796A1 (antibody, chains of the INN, looked up) heavy: EVQLVESGGGLVQPGGSLRLSCAASGFTFSSFGMHWVRQAPGKGLEWVAYISSDSSAIYYADTVKGRFTISRDNAKNSLYLQMNSLRDEDTAVYYCGRGRENIYYGSRLDYWGQGTTVTVSSASTKGPSVFPLAPSSKSTSGGTAALGCLVKDYFPEPVTVSWNSGALTSGVHTFPAVLQSSGLYSLSSVVTVPSSSLGTQTYICNVNHKPSNTKVDKRVEPKSCDKTHTCPPCPAPELVGGPSVFLLPPKPKDTLMISRTPEVTCVVVDVSHEDPEVKFNWYVDGVEVHNAKTKPPEEQYNSTLRVVSVLTVLHQDWLNGKEYKCKVSNKALPAPIEKTISKAKGQPREPQVYTLPPSREEMTKNQVSLTCLVKGFYPSDIAVEWESNGQPENNYKTTPLVLDSDGSFFLYSKLTVDKSRWQQGNVFSCSVMHEALHNHYTQKSLSLSPG light: DIQLTQSPSFLSASVGDRVTITCKASQNVDTNVAWYQQKPGKAPKALIYSASYRYSGVPSRFSGSGSGTDFTLTISSLQPEDFATYYCQQYNNYPFTFGQGTKLEIKRTVAAPSVFIFPPSDEQLKSGTASVVCLLNNFYPREAKVQWKVDNALQSGNSQESVTEQDSKDSTYSLSSTLTLSKADYEKHKVYACEVTHQGLSSPVTKSFNRGEC |  |  |  |  | 39777 | 19700
